Protein stability index data for 94 variants are collected here from the supplement of paper PMC10567573.

The labels stand for the following.
B1: C9orf25 (parent)
chain: LARKGSLKNGSMGSPVNQQPKKNN
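Also: lentivirally expressed fusions sorted by FACS into six bins by GFP to DsRed ratio, PSI derived from sequencing read proportions per bin multiplied by bin number.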

Variants of B1 are the subject of the data set. The data set can be described thus: protein stability index of a GFP-peptide fusion (GPS, HEK-293T) (PSI 1-6); higher = more stable. Conditions: c terminus: a fixed tail appended.
With LARKGSLKNGSMGHPVNQQPKKNN [S14H], the protein stability index came to 4.96. Turning to LARKGSLKNGSMGSPVNQQPKFNN [K22F], the protein stability index stood at 3.56.

Turning to LARKGSLKNGSMGSPVNQQPKMNN [K22M], the protein stability index turned out to be 4.49.

Regarding LARKGSLKNGSMGSPVNQQPKANN [K22A], the protein stability index was 4.51. In the case of LARKGSLKNGSMGSPVNQQPKDNN [K22D] it was 4.21; in that of LARKGSLKNGSMGSPVNQQPKLNN [K22L], 3.81; in that of LARKGSLKNGSMGSPVNQQPKCNN [K22C], 4.49.

Turning to LARKGSLKNGSMGSPVNQQPKHNN [K22H], the protein stability index was found to be 4.02.

On to LARKGSLKNGSMGSPVNQQPKGNN [K22G], for which the protein stability index is 4.54. To LARKGSLKNGSMGSPVNQQPKINN [K22I] belongs 3.8; to LARKGSLKNGSMGSPVNQQPKENN [K22E], 5.05; to LARKGSLKNGSMGSPVNQQAKKNN [P20A], 4.54. Turning to LARKGSLKNGSMGSPVNQQGKKNN [P20G], the protein stability index is 4.5. Turning to LARKGSLKNGSMGSPVNQQLKKNN [P20L], the protein stability index is 4.11. Turning to LARKGSLKNGSMGSPVNQQDKKNN [P20D], the protein stability index was 5.23.

For the variant LARKGSLKNGSMGSPVNQQWKKNN [P20W], the protein stability index came out at 4.1.

With LARKGSLKNGSMGSPVNQQQKKNN [P20Q], the protein stability index is 4.72.

As to LARKGSLKNGSMGSPVNQQTKKNN [P20T], the protein stability index was determined as 3.92. In the case of LARKGSLKNGSMGSPVNQQFKKNN [P20F] it was 4.03; in that of LARKGSLKNGSMGSPVNQQNKKNN [P20N], 4.67. LARKGSLKNGSMGSPVNQQYKKNN [P20Y]: the protein stability index was determined as 4.32. As to LARKGSLKNGSMGSPVNQQMKKNN [P20M], the protein stability index was found to be 4.56. Take LARKGSLKNGSMGSPVNQQVKKNN [P20V]: the protein stability index is 5.07. With LARKGSLKNGSMGSPVNQQEKKNN [P20E], the protein stability index came to 4.59. To LARKGSLKNGSMGSPVNQQHKKNN [P20H] belongs 3.98; to LARKGSLKNGSMGSPVNQQSKKNN [P20S], 4.34.

Turning to LARKGSLKNGSMGSPVNQQIKKNN [P20I], the protein stability index amounted to 4.65. In the case of LARKGSLKNGSMGSPVNQQRKKNN [P20R] it was 4.25; in that of LARKGSLKNGSMGSPVNQQKKKNN [P20K], 4.36.

For the variant LARKGSLKNGSMGSPVNQQCKKNN [P20C], the protein stability index is 4.54.

On to LARKGSLKNGSMASPVNQQPKKNN [G13A], for which the protein stability index was found to be 4.79. In the case of LARKGSLKNGSMVSPVNQQPKKNN [G13V], the protein stability index came to 4.69. Consider LARKGSLKNGSMHSPVNQQPKKNN [G13H], for which the protein stability index stood at 4.58. In the case of LARKGSLKNGSMCSPVNQQPKKNN [G13C], the protein stability index is 5.04.

LARKGSLKNGSMFSPVNQQPKKNN [G13F]: the protein stability index came to 4.06. Take LARKGSLKNGSMDSPVNQQPKKNN [G13D]: the protein stability index amounted to 4.64. In the case of LARKGSLKNGSMWSPVNQQPKKNN [G13W] it was 3.66; in that of LARKGSLKNGSMYSPVNQQPKKNN [G13Y], 4.44. In the case of LARKGSLKNGSMNSPVNQQPKKNN [G13N] it was 4.97; in that of LARKGSLKNGSMLSPVNQQPKKNN [G13L], 4.92.

LARKGSLKNGSMRSPVNQQPKKNN [G13R]: the protein stability index was determined as 4.36. In the case of LARKGSLKNGSMTSPVNQQPKKNN [G13T] it was 4.79; in that of LARKGSLKNGSMQSPVNQQPKKNN [G13Q], 4.99; in that of LARKGSLKNGSMPSPVNQQPKKNN [G13P], 4.33. In the case of LARKGSLKNGSMKSPVNQQPKKNN [G13K] it was 4.28; in that of LARKGSLKNGSMESPVNQQPKKNN [G13E], 5.23.

In the case of LARKGSLKNGSMSSPVNQQPKKNN [G13S], the protein stability index came to 3.98.

LARKGSLKNGSMISPVNQQPKKNN [G13I]: the protein stability index amounted to 4.72.

Take LARKGSLKNGSMMSPVNQQPKKNN [G13M]: the protein stability index stood at 4.44. Take LARKGSLKNGSMGSPDNQQPKKNN [V16D]: the protein stability index came to 4.85.

With LARKGSLKNGSMGSPENQQPKKNN [V16E], the protein stability index turned out to be 5.39. In the case of LARKGSLKNGSMGSPMNQQPKKNN [V16M] it was 4.62; in that of LARKGSLKNGSMGSPGNQQPKKNN [V16G], 4.75; in that of LARKGSLKNGSMGSPRNQQPKKNN [V16R], 4.69. LARKGSLKNGSMGSPINQQPKKNN [V16I]: the protein stability index amounted to 4.79. Take LARKGSLKNGSMGSPPNQQPKKNN [V16P]: the protein stability index worked out at 4.89. To LARKGSLKNGSMGSPCNQQPKKNN [V16C] belongs 4.23.

Take LARKGSLKNGSMGSPFNQQPKKNN [V16F]: the protein stability index is 3.91. For LARKGSLKNGSMGSPKNQQPKKNN [V16K], the protein stability index was determined as 4.14. With LARKGSLKNGSMGSPHNQQPKKNN [V16H], the protein stability index stood at 5.1.

Consider LARKGSLKNGSMGSPNNQQPKKNN [V16N], for which the protein stability index is 4.4. With LARKGSLKNGSMGSPSNQQPKKNN [V16S], the protein stability index stood at 4.68. In the case of LARKGSLKNGSMGSPWNQQPKKNN [V16W], the protein stability index was determined as 4.01. In the case of LARKGSLKNGSMGSPLNQQPKKNN [V16L] it was 4.64; in that of LARKGSLKNGSMGSPQNQQPKKNN [V16Q], 5. In the case of LARKGSLKNGSMGSPYNQQPKKNN [V16Y] it was 3.87; in that of LARKGSLKNGSMGSPTNQQPKKNN [V16T], 4.75. In the case of LARKGSLKNGSMGSPANQQPKKNN [V16A] it was 4.69. Turning to LARKGSLKNGSQGSPVNQQPKKNN [M12Q], the protein stability index is 4.4. To LARKGSLKNGSSGSPVNQQPKKNN [M12S] belongs 4.94; to LARKGSLKNGSTGSPVNQQPKKNN [M12T], 4.74. To LARKGSLKNGSWGSPVNQQPKKNN [M12W] belongs 4.11; to LARKGSLKNGSVGSPVNQQPKKNN [M12V], 4.98. In the case of LARKGSLKNGSRGSPVNQQPKKNN [M12R], the protein stability index worked out at 4.7. Turning to LARKGSLKNGSYGSPVNQQPKKNN [M12Y], the protein stability index amounted to 4.4. On to LARKGSLKNGSMGSPVNQTPKKNN [Q19T], for which the protein stability index amounted to 4.74. To LARKGSLKNGSMGSPVNQLPKKNN [Q19L] belongs 4.67; to LARKGSLKNGSMGSPVNQFPKKNN [Q19F], 4.5. Turning to LARKGSLKNGSMGSPVNQYPKKNN [Q19Y], the protein stability index amounted to 4.58. To LARKGSLKNGSMGSPVNQIPKKNN [Q19I] belongs 4.85. For the variant LARKGSLKNGSMGSPVNQGPKKNN [Q19G], the protein stability index worked out at 5.02. As for LARKGSLKNGSMGSPVNQRPKKNN [Q19R], the protein stability index was found to be 4.45. Consider LARKGSLKNGSMGSPVNQKPKKNN [Q19K], for which the protein stability index stood at 4.22. In the case of LARKGSLKNGSMGSPVNQEPKKNN [Q19E] it was 4.73; in that of LARKGSLKNGSMGSPVNQWPKKNN [Q19W], 3.79; in that of LARKGSLKNGSMGSPVNQVPKKNN [Q19V], 4.86.

LARKGSLKNGSMGSPVNQDPKKNN [Q19D]: the protein stability index was 4.78. In the case of LARKGSLKNGSMGSPVNQSPKKNN [Q19S] it was 4.89.

For the variant LARKGSLKNGSMGSPVNQPPKKNN [Q19P], the protein stability index was determined as 4.39. For the variant LARKGSLKNGSMGSPVNQCPKKNN [Q19C], the protein stability index was 4.68. To LARKGSLKNGSMGSPVNQAPKKNN [Q19A] belongs 4.92; to LARKGSLKNGSMGSPVNQNPKKNN [Q19N], 4.72; to LARKGSLKNGSMGSPVNQHPKKNN [Q19H], 4.69. On to LARKGSLKNGSMGSPVNQMPKKNN [Q19M], for which the protein stability index stood at 4.74.
